In patent publication US20220152100A1, “METHODS FOR CONTROLLED ACTIVATION OR ELIMINATION OF THERAPEUTIC CELLS” (Bellicum Pharmaceuticals, Inc., priority 2014, published 2022):

System: HEK293T/16 cells
Assay: SEAP-based surrogate killing assay of iCasp9 mutants
Type: cell-based, human
Conditions: for effect on basal / catalytic activity: in words, versus wild type
Procedure: Early passage HEK293T/16 cells (ATCC, Manassas, Va.) were maintained in IMDM, GlutaMAX™ (Life Technologies, Carlsbad, Calif.) supplemented with 10% FBS, 100 U/mL penicillin, and 100 […] until transfection in a humidified, 37° C., 5% CO2/95% air atmosphere. Cells in logarithmic-phase growth were transiently transfected with 800 ng to 2 μg of expression plasmid encoding iCasp9 mutants and 500 ng of an expression plasmid encoding SRα promoter driven SEAP per million cells in 15-mL conical tubes. […] GeneJammer® Transfection Reagent at a ratio of 3 μl per ug of plasmid DNA was used to transiently transfect HEK293T/16 cells in the absence of antibiotics. 100 μl or 2 mL of the transfection mixture was added to each well in 96-well or 6-well plate, respectively.
Briefly, after 65° C. heat denaturation for 45 minutes to reduce background caused by endogenous (and serum-derived) alkaline phosphatases that are sensitive to heat, 5 μl of supernatants was added to 95 μl of PBS and added to 100 μl of substrate buffer, containing 1 μl of 100 mM 4-methylumbelliferyl phosphate (4-MUP; Sigma, St. Louis, Mo.) re-suspended in 2 M diethanolamine. Hydrolysis of 4-MUP by SEAP produces a fluorescent […] with excitation/emission (355/460 nm), which can be easily measured. Assays were performed in black opaque 96-well plates to minimize fluorescence leakage between wells. […] of the mixture was seeded onto each well of a 96-well plate. […] For the assay, 4-methylumbelliferyl phosphate substrate was hydrolyzed by SEAP to 4-methylumbelliferon, a metabolite that can be excited with 364 nm and detected with an emission filter of 448 nm. Since SEAP is used as a marker for cell viability, reduced SEAP reading corresponds with increased iCaspase-9 activities.

Row | Molecule | relative SEAP activity Units (basal, without AP1903) (1 μg iCasp9 per million cells) | relative SEAP activity Units (basal, without AP1903) (2 μg iCasp9 per million cells) | effect on basal / catalytic activity
1 | D330A-N405Q: chimeric modified Caspase-9 polypeptide, double mutant, SEQ ID NO: 28 (protein) GFGDVGALESLRGNADLAYILSMEPCGHCLIINNVNFCRESGLRTRTGSNIDCEKLRRRFSSLHFMVEVKGDLTAKKMVLALLELARQDHGALDCCVVVILSHGCQASHLQFPGAVYGTDGCPVSVEKIVNIFNGTSCPSLGGKPKLFFIQACGGEQKDHGFEVASTSPEDESPGSNPEPDATPFQEGLRTFDQLAAISSLPTPSDIFVSYSTFPGFVSWRDPKSGSWYVETLDDIFEQWAHSEDLQSLLLRVANAVSVKGIYKQMPGCFQFLRKKLFFKTS | 205772 | 174366 | intermediate
2 | N405A: chimeric modified Caspase-9 polypeptide (protein, UniProt P55211 1-416, looked up, variant N405A, chimeric, fused to dimerization domain, chimeric modified Caspase-9 polypeptide) MDEADRRLLRRCRLRLVEELQVDQLWDALLSRELFRPHMIEDIQRAGSGSRRDQARQLIIDLETRGSQALPLFISCLEDTGQDMLASFLRTNRQAAKLSKPTLENLTPVVLRPEIRKPEVLRPETPRPVDIGSGGFGDVGALESLRGNADLAYILSMEPCGHCLIINNVNFCRESGLRTRTGSNIDCEKLRRRFSSLHFMVEVKGDLTAKKMVLALLELAQQDHGALDCCVVVILSHGCQASHLQFPGAVYGTDGCPVSVEKIVNIFNGTSCPSLGGKPKLFFIQACGGEQKDHGFEVASTSPEDESPGSNPEPDATPFQEGLRTFDQLDAISSLPTPSDIFVSYSTFPGFVSWRDPKSGSWYVETLDDIFEQWAHSEDLQSLLLRVANAVSVKGIYKQMPGCFAFLRKKLFFKTS |  |  | no effect
3 | N405F: chimeric modified Caspase-9 polypeptide (protein, UniProt P55211 1-416, looked up, variant N405F, chimeric, fused to dimerization domain, chimeric modified Caspase-9 polypeptide) MDEADRRLLRRCRLRLVEELQVDQLWDALLSRELFRPHMIEDIQRAGSGSRRDQARQLIIDLETRGSQALPLFISCLEDTGQDMLASFLRTNRQAAKLSKPTLENLTPVVLRPEIRKPEVLRPETPRPVDIGSGGFGDVGALESLRGNADLAYILSMEPCGHCLIINNVNFCRESGLRTRTGSNIDCEKLRRRFSSLHFMVEVKGDLTAKKMVLALLELAQQDHGALDCCVVVILSHGCQASHLQFPGAVYGTDGCPVSVEKIVNIFNGTSCPSLGGKPKLFFIQACGGEQKDHGFEVASTSPEDESPGSNPEPDATPFQEGLRTFDQLDAISSLPTPSDIFVSYSTFPGFVSWRDPKSGSWYVETLDDIFEQWAHSEDLQSLLLRVANAVSVKGIYKQMPGCFFFLRKKLFFKTS |  |  | lowered basal activity
4 | G402I: chimeric modified Caspase-9 polypeptide (protein, UniProt P55211 1-416, looked up, variant G402I, chimeric, fused to dimerization domain, chimeric modified Caspase-9 polypeptide) MDEADRRLLRRCRLRLVEELQVDQLWDALLSRELFRPHMIEDIQRAGSGSRRDQARQLIIDLETRGSQALPLFISCLEDTGQDMLASFLRTNRQAAKLSKPTLENLTPVVLRPEIRKPEVLRPETPRPVDIGSGGFGDVGALESLRGNADLAYILSMEPCGHCLIINNVNFCRESGLRTRTGSNIDCEKLRRRFSSLHFMVEVKGDLTAKKMVLALLELAQQDHGALDCCVVVILSHGCQASHLQFPGAVYGTDGCPVSVEKIVNIFNGTSCPSLGGKPKLFFIQACGGEQKDHGFEVASTSPEDESPGSNPEPDATPFQEGLRTFDQLDAISSLPTPSDIFVSYSTFPGFVSWRDPKSGSWYVETLDDIFEQWAHSEDLQSLLLRVANAVSVKGIYKQMPICFNFLRKKLFFKTS |  |  | catalytically inactive
